According to patent US20250269018A1, “COMBINED CANCER THERAPY WITH AN EPITHELIAL CELL ADHESION MOLECULE (EPCAM) INHIBITOR AND A HEPATOCYTE GROWTH FACTOR RECEPTOR (HGFR) INHIBITOR” (ACADEMIA SINICA, priority 2021, published 2025):

How the values were obtained:
EpEX binding to HGFR = biological target: T1, EpEX binding to HGFR (Homo sapiens, UniProt P16422); assay: ELISA of EpEX-His binding to HGFR-Fc-coated plates; conditions: EpEX-His 2 μg/ml with 1 μg antibody; HGFR-Fc 1 μg/ml coated; FIG. 6F
T1 construct: the soluble extracellular domain of EpCAM (EpEX); His; made in house; host or cells: Expi293
T1 sequence (P16422 24-265 limits assumed): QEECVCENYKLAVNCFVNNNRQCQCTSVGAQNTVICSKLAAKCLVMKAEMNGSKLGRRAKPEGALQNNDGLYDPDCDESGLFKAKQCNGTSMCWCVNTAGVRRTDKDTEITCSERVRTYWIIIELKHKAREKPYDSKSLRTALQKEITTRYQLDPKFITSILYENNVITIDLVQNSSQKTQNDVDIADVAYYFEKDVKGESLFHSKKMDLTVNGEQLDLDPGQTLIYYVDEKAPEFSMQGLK
Procedure: (§1) FIGS. 6A to 6J. EpAb2-6 inhibits EpCAM and HGFR signaling and promotes active β-catenin and Snail protein degradation via activating GSK3β. (FIG. 6A) HCT116 cells were treated with 10 μg/ml control IgG (normal mouse IgG, NMIgG) or mouse EpAb2-6 (EpAb2-6) for 16 h, followed by treatment with EpEX-His (50 nM) for 15 min. Levels of phosphorylated HGFR, AKT, FAK, GSK3β, ERK, ADAM17, and presenilin 2 were examined by Western blotting. (FIG. 6B) HCT116 cells were treated with 10 μg/ml control IgG or mouse EpAb2-6 for 16 h, followed by treatment without or with HGF (0.5 nM) for 15 min. Levels of phosphorylated HGFR, AKT, and ERK were examined by Western blotting. HCT116 cells were treated with mouse EpAb2-6 (10 μg/ml) and HGF (0.5 nM). […] (FIG. 6D) Cell invasion was assessed by a Transwell assay with matrigel after 24 h. […] (FIG. 6F) EpEX-His (2 μg/ml) co-treated with 1 μg IgG or EpAb2-6 was added to HGFR-Fc-coated (1 μg/ml) ELISA plates and detected by TMB colorimetric peroxidase assay. (FIG. 6G) EMT associated protein levels were detected by Western blotting in HCT116 cells treated with NMIgG or EpAb2-6 for 24 h. (FIG. 6H) Protein expression was analyzed by Western blotting in HCT116 cells after treatment with EpAb2-6 and 2 μM GSK3β inhibitor (BIO) for 24 h. Quantification of the normalized protein expression in the bottom panel. […]

HCT116-Luc cells = assay: Orthotopic animal model, HCT116-Luc; conditions: EpAb2-6 15 mg/kg, crizotinib 20 mg/kg, FIG. 9D, 9E
Procedure: (§2) (FIG. 9C) Timeline of the experiment to evaluate EpAb2-6 and/or crizotinib in the in orthotopic animal models. (FIG. 9D) NOD/SCID mice received orthotopic implantation of HCT116-Luc cells and then were treated with control IgG (normal mouse IgG, NMIgG), crizotinib, EpAb2-6, or crizotinib combined with EpAb2-6 starting at 3 days after tumor inoculation (n=5). Tumor growth was monitored by examining bioluminescence with the IVIS 200 Imaging System. (FIG. 9E) HCT116-Luc tumor cells monitored by bioluminescence quantification. […] (FIG. 9H) NOD/SCID mice were orthotopically implanted with HT29-Luc cells and then treated with control IgG, crizotinib, EpAb2-6, or crizotinib combined with EpAb2-6 starting at 3 days after tumor inoculation (n=5). Tumor growth was monitored by examining bioluminescence with an IVIS 200 Imaging System. (FIG. 9I) HT29-Luc tumor cells monitored by bioluminescence quantification.
(§3) Orthotopic tumor models were created as previously reported (Chen et al., 2020). Briefly, NSCID mice were used for orthotopic implantation of HCT116 cells previously infected with Lenti-luc virus (lentivirus containing luciferase gene). […] Tumor development was monitored by bioluminescence imaging. […] Tumor progression was monitored by quantification of bioluminescence. Mouse survival was also monitored.

EpCAM and HGFR = biological target: T2, EpCAM and HGFR (Homo sapiens, UniProt P16422); assay: Immunoprecipitation of endogenous EpCAM and HGFR in HCT116 cells; assay type: cell-based; conditions: 6 h treatment, IP of endogenous proteins, FIG. 6E
T2 construct: as detected by IP of endogenous proteins in HCT116 cells; endogenous in cells; host or cells: HCT116
T2 sequence (P16422 24-314): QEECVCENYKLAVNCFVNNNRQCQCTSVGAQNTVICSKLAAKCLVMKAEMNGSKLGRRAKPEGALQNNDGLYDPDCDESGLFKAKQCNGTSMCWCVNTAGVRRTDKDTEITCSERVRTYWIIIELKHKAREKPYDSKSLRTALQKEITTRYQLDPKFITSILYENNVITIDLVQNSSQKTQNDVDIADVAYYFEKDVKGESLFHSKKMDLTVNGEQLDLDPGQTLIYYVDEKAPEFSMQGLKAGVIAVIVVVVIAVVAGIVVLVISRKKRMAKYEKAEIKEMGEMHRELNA
Procedure: as §1

HT29-Luc cells = assay: Orthotopic animal model, HT29-Luc; conditions: FIG. 9H, 9I
Procedure: as §2, §3

B1: EpAb2-6: anti-EpCAM neutralizing monoclonal antibody targeting EpEX; VH SEQ ID NO: 15, VL SEQ ID NO: 16 (antibody, listed as Homo sapiens, V domains shown)
VH: VKLQESGPELKKPGETVKISCKASGYTFTDYSMHWVKQAPGKGLKWMGWINTETGEPTYADDFKGRFAFSLETSASTAYLQINNLKNEDTATYFCARTAVYWGQGTTVTVSS
VL: DIQMTQSPSSLSASLGERVSLTCRASQEISVSLSWLQQEPDGTIKRLIYATSTLDSGVPKRFSGSRSGSDYSLTISSLESEDFVDYYCLQYASYPWTFGGGTKLEIKRADAAPTVS
EpEX binding to HGFR
  EpEX binding to HGFR: inhibit EpEX binding to HGFR
HCT116-Luc cells
  bioluminescence intensities: significantly decreased compared to the control IgG or crizotinib alone groups
EpCAM and HGFR
  association between EpCAM and HGFR: decreased the association between EpCAM and HGFR
HT29-Luc cells
  bioluminescence intensities: significantly decreased compared to the control IgG or crizotinib alone groups
